Legend:
[1] = biological target: T1, IL-1 (Homo sapiens, UniProt P01584); assay: direct binding to IL-1 by biosensing techniques
[2] = biological target: IL-1β (Homo sapiens, UniProt P01584); assay: two independent in vitro bioassays of IL-1β biological activity; format: cell-based; settings: effect dependent on the peptide sequence
Excerpt: The programme identified the antisense region LITVLNI in the interleukin 1 type 1 receptor (IL-1R).
The effect is dependent on the peptide sequence.

[3] = biological target: T1, IL-1; assay: Serum Amyloid IL-1 assay; format: cell-based

T1 sequence (P01584 117-269): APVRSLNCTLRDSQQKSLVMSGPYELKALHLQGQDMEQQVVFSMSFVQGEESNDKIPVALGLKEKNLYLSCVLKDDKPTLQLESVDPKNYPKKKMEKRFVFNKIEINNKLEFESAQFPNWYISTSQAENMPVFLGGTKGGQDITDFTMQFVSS
Sequence of IL-1β (P01584 117-269): as above

LITVLNI [antisense region in the interleukin 1 type 1 receptor (IL-1R) identified by the programme]
direct binding to IL-1 [1]: shown to bind directly to IL-1 | inhibition of the biological activity of IL-1β [2]: shown to inhibit the biological activity of IL-1β | inhibition of IL-1 activity (same effect) in Serum Amyloid IL-1 assay [3]: same effect is also seen

From patent publication US20030078374A1, “Complementary peptide ligands generated from the human genome” (priority 1999, published 2003)
